Test results reported in PMC5967319.

Molecular target: eukaryotic initiation factor 4E (eIF4E) (human (endogenous in HEK293T)) (UniProt P06730)
Test: pull-down; eIF4E captured from HEK293T lysate (1 mg protein) on m7GTP-agarose (cap analog), 4 °C, 90 min, 50 mM HEPES pH 7.4, 50 mM NaCl; eluted with 0.5 mM m7GTP; blots for eIF4E and 4EBP1; cells in complete medium or medium without His, Arg, Leu or Met for 12 h, or transfected with empty vector, wild-type or T37A/T46A 4EBP1 for 24 h

UniProt P06730, sequence (P06730 whole entry): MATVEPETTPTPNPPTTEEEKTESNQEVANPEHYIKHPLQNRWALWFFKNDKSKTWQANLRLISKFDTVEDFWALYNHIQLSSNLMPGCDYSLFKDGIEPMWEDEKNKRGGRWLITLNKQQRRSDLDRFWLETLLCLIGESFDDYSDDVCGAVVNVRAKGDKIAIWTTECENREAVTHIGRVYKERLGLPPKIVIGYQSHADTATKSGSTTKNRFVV

fold of 4EBP1 bound to eIF4E against cells with empty vector: 4 fold
Substance: mutant constitutively active 4EBP1(T37A/T46A) (from UniProt Q60876 1-117) (natural protein)
